Experiment: label from the status in PepcDB records
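Also: failed if final PepcDB status was selected cloned or expressed and not failed if soluble or beyond.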

Sequence | protein production
MFDKIHYYYFNANYEKCLNLSEQFLKESPKFALEFATLSSYKLSLFQKALYYAQELFSLNPTSFNGLMLAKSYIENLRLDEALNLLQTLLTRKDDLEDELKLELAFIYKLSNKLEESEQIFKELLSKDMYNLNLWKNYAEIYFKHDFTKALNAHEHLCHFMQDLIDKLQKGIIAEQTNLNLVKLEDRLHSKTKENLTISKIEDFLTHQILPQKAYLLFKLFRISDSLELFQSLQEANQHHAQFWQNYAKVLEFNSNYQEAYHAYKKCLSLDSHATYQFDLAYLLMRMGVDDNFEEGKKYYESRLFYAHNETFSTYHYNESLKAFNKFGVDAFKNKEVLVFCEQGFGDTIMYARCLEKLCKIASKVLFAPQSAMYEMFKNQIKFLNQNDDIFKNVKVLKNLPTNFDYAIPICSLPFFIDIKLDEILRLKTPILPQKKPHNQRKKLGIFYATPNAENSDLLRNVKFEFLFDVLKDLDYEIISFQMQLKEELPKVIEDRSKLIKNWNDTLNYLYDIDCMLSIDSAIAHLSLAMDIPTIVLLHPRFDWRWGKFENPKSYFWPKAKCFIIKEQEETKRNLQKLIKDILN | failed
MCTSLTLETKNGQHLFARTMDFTLDMNQEVIIIPRHYQWNNITGEIINTKHATVGMGINHQGRIIMADGVNEAGMTCATLYFPGFATYSQSIDDNTTNLAPFDFVTWSLTQFNSVKELKKSVDSITFLDIPLPDLGLTPPLHWILADKWGDCIVLDPTSEGLKLYDNPLGVMTNSPEFNWHLQNLRQYIGLKSQPFAPTEWSNLPLSAFGQGSGSMGLPGDFTPPSRFVRAAYGKQNIQGIDSEEEGVSALFHILSNCEVPKGGVITEEGALDNTIYTSVMCMESGTYYYHTYDCRQIIAVHLFHENLDTDEIKAYPFQRKQKIFYEN | failed
MVNHGYPLGRSLLSIAMAMLGALSLVFPLPLLTQDMVDSERSLPLLGDHPLEERLIDGMDEGIKKNYRGAIAIFTELILLDPSYADAYFNRGIARARIADYQGAITDHSQAITLNPQLAEAYKARGKIYWQLGEQAQAIADLEAALALFSDQENLVSQREAWEQLQTWHGNP | failed
MKKTLKILAGFVAVVIIIALGIFTSRKLYQNHVDKINHIGKVMDSYKGVKVYYNGKKYAESHGKNYSKDGYYYGYKWQVEYIKRFYYEAKGHSMPNGFGNAKDFFDPKVGQGKLNKDRGLFQYKNGENEKPKADDILVFTDTKYGHVVIVTKVTDDTVEVIQQNMGNKTRDQFKLEYENGKYFVCGKRKPKGWLRKGLEHHHHHH | not failed
MIYWGMGMLVIAWLADGGISRLSDLIKEPLALGVLLFCGVWVLGLLWSDSAVIFQGKWRKYFILLTFIPLFSLLSRERLPWVTGALLCSYLGMVILGSYQWAMQEMQGISLLGMSYLHYSAALGIGVILAVFLGWETLSREKRWLSVLSWLIAILLLFLQFNQSARGILLATLMALLLMIVLRYRAEWRMLTGGLTAIMAMVILFATSSDIFHDRLQQAGTDLRSFQQGDYQTSVGYRLAMWDVGLHGIAEHPLLGHGSGMAKKYFDDSIITYKQGIYRNLPEFQETAHFHNELIEIGMHLGLLGILAFVFLLWCWFQIFRQNRMALLGSAIVCFICISGLTDTFLLYSGTPPFLLTVTAIAVCWRKYREDPDRIGQKYTSGERNGNQNPQMFLMSA | failed
MFKKWLTWPVFYELTEIYTAPLNIMWFVLGSAIAQYHLGTVNWLNVTLCLVSVFIFDLAVNVSDNYYDYRHARDREGYAQKTNPIGRLQLPVAGVGRLALGLYLISLIPGIWLVMRTGWLVLVLGLVGYVIGIFYTAGPYPINATPLCETVVALAIAFLIELTCVVVSTYGQHPLTWSIVGTTFLLCLPLTLIFFCLQLANNTADRDEDILNHRYTLAYYLGKPGSVRLIQAFLVIGGIWPLVNVLLGLAPVVTIWVVLLLPIMWQGMRPFFEVQDKKKTFITTVKSASLFFILYPVLFVLGTWL | failed
MLGKDYMLAIILVNCDDDLWGDHSLEVEAGLPPGWRKIHDAAGTYYWHVPSGSTQWQRPTWELGDAEDPGTGTEGIWGLRPPKGRSFSSLESSLDRSNSLSWYGGESYIQSMEPGAKCFAVRSLGWVEVPEEDLAPGKSSIAVNNCIQQLAQTRSRSQPPDGAWGEGQNMLMILKKDAMSLVNPLDHSLIHCQPLVHIRVWGVGSSKGRDRDFAFVASDKDSCMLKCHVFCCDVPAKAIASALHGLCAQILSERVEVSGDASCCSPDPISPEDLPRQVELLDAVSQAAQKYEALYMGTLPVTKAMGMDVLNEAIGTLTARGDRNAWVPTMLSVSDSLMTAHPIQAEASTEEEPLWQCPVRLVTFIGVGRDPHTFGLIADLGRQSFQCAAFWCQPHAGGLSEAVQAACMVQYQKCLVASAARGKAWGAQARARLRLKRTSSMDSPGGPLPLPLLKGGVGGAGATPRKRGVFSFLDAFRLKPSLLHMP | not failed
MESSEEDDEYPFIESITPQSKIDSVHQSLTEKGIRKLCCELMDLKDAVENMCGDMRTKYLAFLRISEEAVEMEHELVELRKHISSQGILVQDLMAGVCREMDDWNRLPGDVHDAEVEEDPLPNEVTDPKSEFLEKIDLLLAEHKVDEALEAMDAEERSSPDLKGSVEMSSYKSAFMERKAVLEDQLLRIAKQPSICVAELKHALIGLIRLGKGPSAHQLLLKFYATSLRRRIEAFLPSCLTCPNTFPATLSKLVFSNISVATKESAAMFGDDDNPAYSNKVVQWAEREVEYLVRLVKENASPSETASALRAASICLQDCLNYCKVLEPQGLFLSKLFLVLFRPYVEEVLELNFRRARRVIFDLNETDEGLESPSDFVTILSEFAIASDTMMTDCSIRFMQIVQDILEQLTHLVVLHFGESVLTRILQLYDKYIDFLIKALPGHSDEDGLPELQDNTVLARAETDSEQLALLGAAFTILDELLPRSLVKVWKLQIENGGGEGENSAALNSSAAPELKEWKRHMVQAFDKLRNYFCLQFVLSFIYSREGLTRLDALIYLTETPDDLHLPSLPFQALFSKLQQLAIIAGDVLLGKEKLQKILLARLTETVIIWLSNEQEFWSAFEDESNPLQPSGLQQLILDMNFTVEIARFAGYPFKVVQNHASVVINRAINIFSERGINPQSSLPKTEWFTEAAKSAINRLLMGSEDASEPEEYECEEEEEDDHHIVLPEMDDDSDSEDTSSLSTVDSFESFASASMADLESPSFTDSES | failed
MKMVLFSFLLGCCSLLVSAQQPVDYVNPFIGTSNYGTTNPGAICPQGMMSVTPFNVMGSKSNKFDKDSQWWSTPYSADNNFFTGYAHVNLSGVGCPEMGSLLLMPTSGELNVDYHAYGSEYKNEVAHPGYYSNILTKYDIKTEATASMRTGLTRFTFPKGQGNILLNLGEGLTNETGATVRMVSDTEIEGSKLLGTFCYNPQAVFPIYFVMKLSKAPKQAGYWKKQREMKGVEAEWDAYSGKYKLYTKYDREMSGDDIGVWFKYDTEEDEVIEVKMGVSFVSIENARLNMNTEQPDFNFDKVRAAAGKMWNDDLSRVMVEGGTNDDKTIFYTAIYHLLIHPNIIQDVNGEYPMMESLKVGHTTGNRYTVFSLWDTYRNVSTLMTLLYPEKQLDIIRTMIDMYKESGWLPKWELYGRETLTMEGDPSIPYIVDAYMRGLRDYDIETAYEGMCKGATTPGEFNLLRPDNNDYMSKGYVPLREQYDNSVSHALEYYIADWNLSLLADALGKKEDAKLFRERAMGYKHYYCKEFGTLRPILPDGTFYSPFDPKQGENFEPSPGFHEGNAWNYTFYVPHDIKGLAKLMGGQKKFVDKLQMVFDKGYYDMANEPDIAYPYLFSYFKGEAWRTQKLVCELLGKYYHNAPNGLPGNDDTGTMSTWAIFSMMGFYPACPGDLDYVVTSPTFNKVTIRLDEKFYPKGELVIESARKTPEDIYIKEVTAGGKKLKGYTISQDELVNAGTLRFTLENKH | failed
MDFVPKILGNVVLLLSAGLNWTAMRVFAGRRPHVPGLLAGAGIWLILCVVPAFYQSMPVRVSVYSLLAAAYGVLTLLEFWRSRQQLEVAYMPAVVLTLLHTMYYIVRAVVDQGVAMDQALKGYGAGVPLFSFMLFESMLYVIGIAYVTLCMVKERVELRFKAAAFCDALTGIGNRRAFMVNGERMLIECQRRCSPMALLLCDLDHFKRLDDAYGHQTGDQVLVAFSQVLAETLGTKDVYARIGGEEFACLLAATDEQAAVTVAERVRQAFARLPLLEPGLLSVSIGVVSSETRGYDLPRLLSLADEALYDAKHQGRNRVHTVSRSALELQPD | failed
MEKQEEEDVKRRQRQKAATSLGFLHWEELKNHGDLSKVALNIALTTLVDDASTGFCIMNLVNLIVLRESSQGYLLTYEGKLASLASATYVKAFISLWVLEDAERHAWSFRTFSLTFPLDDPILDTFLELTGVTEAGEFVYAPTTLQSPFHALYFDPQRNSFRRVIYEGLADDEFRRRNRLGYERHHILPNHIESLISL | failed
MIQCEECLCWQHSVCMGLLEESIPEQYICYICRDPPGQRWSAKYRYDKEWLNNGRMCGLSFFKENYSHLNAKKIVSTHHLLADVYGVTEVLHGLQLKIGILKNKHHPDLHLWACSGKRKDQDQIIAGVEKKIAQDTVNREEKKYVQNHKEPPRLPLKMEGTYITSEHSYQKPQSFGQDCKSLADPGSSDDDDVSSLEEEQEFHMRSKNSLQYSAKEHGMPEKNPAEGNTVFVYNDKKGTEDPGDSHLQWQLNLLTHIENVQNEVTSRMDLIEKEVDVLESWLDFTGELEPPDPLARLPQLKRHIKQLLIDMGKVQQIATLCSV | not failed
MEKKVGTDRVKRGMAQMQKGGVIMDVVNAEQAKIAEEAGAVAVMALERVPSDIRAAGGVARMADPRIVEEVMNAVSIPVMAKARIGHITEARVLEAMGVDYIDESEVLTPADDEFHLLKSDFTVPFVCGCRDIGEALRRIGEGAAMLRTKGEPGTGNIVEAVRHMRQVNGQIRQIASMTDDELMVAAKNFGAPYELVKEIKTLGKLPVVNFAAGGVATPADAALMMELGADGVFVGSGIFKSDNPAKFASAIVQATTYYTDYELIGKLSKELGSPMKGIEMSRLNPEDRMQDRSF | failed
MHMQLKGKTALVTGSTAGIGKAIATSLVAEGANVLINGRREENVNETIKEIRAQYPDAILQPVVADLGTEQGCQDVIEKYPKVDILINNLGIFEPVEYFDIPDEDWFKLFEVNIMSGVRLTRSYLKKMIERKEGRVIFIASEAAIMPSQEMAHYSATKTMQLSLSRSLAELTTGTNVTVNTIMPGSTLTEGVETMLNSLYPNEQLTIEEAEKRFMKENRPTSIIQRLIRPEEIAHLVTFLSSPLSSAINGSALRIDGGLVRSVF | not failed
MAMALFQSAPHSLCILRLSAIGDVCNTIAAVQAIQRQWPQTRITWVTGKLEAELIQSLPDIQVIVFDKKLGWRAYTQLWQQLKSERFDALLHMQYAFRASIATLGIKARYKLGFDAARSQDFQTWFTNVKVPSPDKMHVLDGLLAFVEHLGIRDIEPKWSLTCQPDDLTWAEAQFQPEQPRLVVVPGASKAYKNWTAEGYAAVIEHAQQQGWQVILAGSPAQVERDLAAQVEQALAHPVLNLVGKSTLQQMLALLAKADLVIAPDTGPAHMANAMHTPIIGLYAHHNPERTGPYHYRHYVVSAYQEALLAETGKMPQQVDWRTRVKDPNAMQRITAQQVIAMFERAAADIMATQVND | failed
MIYRKATEKDIAQLVELRKKQLEDEGIAPINNIDTELTHFFELSFKKNSFISWISEEDNEIIATSGVCFYKYPPSYLNPSGKVAYITNMYTKYEYRSRGIALALLKLVILEAKKRDYLFLRLHASDMGRPIYEEIGFKPFDDFMEMNLSLNRNGELEHHHHHH | not failed
MELSQRQERIIEIVKTKGPITGEQIADKLNLTRATLRPDLAILTMSGFLEARPRVGYYYSGKSKGKFFNEKLRQFEVKDYMSQPVVLRENTTVYDAICTIFLEDVSTLFIINEDNDFVGVCSRKDLLRASMIGADIHTVPISVNMTRMPNVTYLEESELVIYAADRMIEKEIDSIPIVRKKDNQKYEVIGRISKTTIAKLLVALYKE | not failed
MLKEKAGVIAGTIWNALNETEGMTAKQLKKATKLVDKDLFLGLGWLLREDKVSVEEVEGELFIKLI | failed

— a protein production outcome set (Wang et al. 2014)
